In IntAct's records for PubMed 29039417:

B1: Protein PTHB1 (Homo sapiens), Q3SYG4 (parent)
chain: MSLFKARDWWSTILGDKEEFDQGCLCLANVDNSGNGQDKIIVGSFMGYLRIFSPHPAKTGDGAQAEDLLLEVDLRDPVLQVEVGKFVSGTEMLHLAVLHSRKLCVYSVSGTLGNVEHGNQCQMKLMYEHNLQRTACNMTYGSFGGVKGRDLICIQSMDGMLMVFEQESYAFGRFLPGFLLPGPLAYSSRTDSFLTVSSCQQVESYKYQVLAFATDADKRQETEQQKLGSGKRLVVDWTLNIGEQALDICIVSFNQSASSVFVLGERNFFCLKDNGQIRFMKKLDWSPSCFLPYCSVSEGTINTLIGNHNNMLHIYQDVTLKWATQLPHIPVAVRVGCLHDLKGVIVTLSDDGHLQCSYLGTDPSLFQAPNVQSRELNYDELDVEMKELQKIIKDVNKSQGVWPMTEREDDLNVSVVVSPNFDSVSQATDVEVGTDLVPSVTVKVTLQNRVILQKAKLSVYVQPPLELTCDQFTFEFMTPDLTRTVSFSVYLKRSYTPSELEGNAVVSYSRPTDRNPDGIPRVIQCKFRLPLKLICLPGQPSKTASHKITIDTNKSPVSLLSLFPGFASQSDDDQVNVMGFHFLGGARITVLASKTSQRYRIQSEQFEDLWLITNELILRLQEYFEKQGVKDFACSFSGSIPLQEYFELIDHHFELRINGEKLEELLSERAVQFRAIQRRLLARFKDKTPAPLQHLDTLLDGTYKQVIALADAVEENQGNLFQSFTRLKSATHLVILLIALWQKLSADQVAILEAAFLPLQEDTQELGWEETVDAAISHLLKTCLSKSSKEQALNLNSQLNIPKDTSQLKKHITLLCDRLSKGGRLCLSTDAAAPQTMVMPGGCTTIPESDLEERSVEQDSTELFTNHRHLTAETPRPEVSPLQGVSE
partner: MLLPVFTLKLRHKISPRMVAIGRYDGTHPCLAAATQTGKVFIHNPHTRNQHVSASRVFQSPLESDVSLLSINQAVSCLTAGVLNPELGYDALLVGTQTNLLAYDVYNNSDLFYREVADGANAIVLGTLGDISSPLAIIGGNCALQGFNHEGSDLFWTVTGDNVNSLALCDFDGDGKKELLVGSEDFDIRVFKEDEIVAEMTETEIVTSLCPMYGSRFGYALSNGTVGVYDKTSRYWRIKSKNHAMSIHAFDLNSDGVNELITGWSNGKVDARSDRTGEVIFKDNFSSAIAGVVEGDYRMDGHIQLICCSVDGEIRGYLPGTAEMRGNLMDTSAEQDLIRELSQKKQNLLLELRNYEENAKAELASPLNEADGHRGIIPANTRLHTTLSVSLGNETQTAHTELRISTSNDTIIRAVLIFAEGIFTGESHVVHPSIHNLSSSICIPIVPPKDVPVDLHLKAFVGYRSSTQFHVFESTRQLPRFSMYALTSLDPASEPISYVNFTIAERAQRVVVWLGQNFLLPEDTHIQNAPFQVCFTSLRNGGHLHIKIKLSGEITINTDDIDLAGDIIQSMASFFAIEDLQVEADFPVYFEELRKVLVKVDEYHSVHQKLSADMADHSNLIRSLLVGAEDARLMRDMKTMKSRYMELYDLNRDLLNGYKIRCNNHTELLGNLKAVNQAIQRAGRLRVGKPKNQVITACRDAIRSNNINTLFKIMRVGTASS

Variants of: B1
Settings: with bbs2_human BBS2, Q9BXC9

| Variant | effect of a mutation on the interaction |
| --- | --- |
| F566E | with no effect |
| F566K | with no effect |
| F566A | with no effect |
| L562A | with no effect |
| L562K | with no effect |
| L562E | with no effect |
| S541K | with no effect |
| S541E | with no effect |
| S541A | with no effect |
| K542E | with no effect |
| K542A | with no effect |
| S545E | with no effect |
| S545K | with no effect |
| S545A | with no effect |
| A567K | with no effect |
| A567E | with no effect |
| Q569A | with no effect |
| Q569E | with no effect |
| S568E | with no effect |
| S568A | with no effect |
| S568K | with no effect |
| T549K | with no effect |
| T549A | with no effect |

| Variant | effect of a mutation on the interaction |
| --- | --- |
| T549E | with no effect |
| T543A | with no effect |
| T543E | with no effect |
| T543K | with no effect |
| G565R | disrupting interaction strength |
| G565E | with no effect |
| G565K | with no effect |
| G565A | with no effect |
| S561E | with no effect |
| S561K | with no effect |
| S561A | with no effect |
| P556K | with no effect |
| P556E | with no effect |
| P556A | with no effect |
| P556Q | disrupting interaction strength |
| P564K | with no effect |
| P564A | with no effect |
| P564E | with no effect |
| Q539K | with no effect |
| L560E | with no effect |
| L560K | with no effect |
| L560A | with no effect |
